Experimental data: US20100004429A1 (Kyowa Kirin, published 2010)
Numbering of substitutions follows the chain as printed.

T1: human thrombopoietin receptor (human c-Mpl) (human, UniProt P40238 26-635)
T1 sequence (looked up): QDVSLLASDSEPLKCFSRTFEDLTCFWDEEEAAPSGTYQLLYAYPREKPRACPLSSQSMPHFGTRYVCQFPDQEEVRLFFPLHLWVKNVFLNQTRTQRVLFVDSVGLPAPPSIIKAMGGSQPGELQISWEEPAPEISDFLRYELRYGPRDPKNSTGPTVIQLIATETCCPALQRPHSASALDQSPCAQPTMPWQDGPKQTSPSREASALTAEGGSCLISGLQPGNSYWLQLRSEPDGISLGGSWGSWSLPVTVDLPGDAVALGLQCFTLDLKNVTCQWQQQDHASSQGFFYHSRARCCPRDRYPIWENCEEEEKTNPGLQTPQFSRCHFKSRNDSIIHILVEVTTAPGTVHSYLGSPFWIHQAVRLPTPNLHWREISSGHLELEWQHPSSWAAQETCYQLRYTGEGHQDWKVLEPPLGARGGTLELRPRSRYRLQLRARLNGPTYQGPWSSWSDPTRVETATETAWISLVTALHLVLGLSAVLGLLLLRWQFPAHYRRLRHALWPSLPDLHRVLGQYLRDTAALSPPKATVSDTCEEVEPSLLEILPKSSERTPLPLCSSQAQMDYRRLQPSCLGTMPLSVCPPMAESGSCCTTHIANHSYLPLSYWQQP

B1: anti-human c-Mpl agonist antibody 6-5-2 (IgG1) (antibody, V domains shown)
VH: EVQLVECGGGLVQPGRSLRLSCAASGFTFDDYAMHWVRQAPGKGLEWVSGISWNSGSIGYADSVKGRFTISRDNAKNSLYLQMNSLRAEDTALYYCAKPIWFGEWGNYYGMDVWGQGTTVTVSS
VL: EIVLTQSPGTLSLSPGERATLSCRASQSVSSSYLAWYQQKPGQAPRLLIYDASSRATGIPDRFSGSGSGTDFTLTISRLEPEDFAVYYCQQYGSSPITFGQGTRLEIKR
B2: anti-human c-Mpl agonist antibody 4-49 (IgG1) (antibody, V domains shown)
VH: EEQLVESGGGLVQPGRSLRLSCTASGFTFDDYAMYWVRQVPGKGLEWVSGISWNSGSIGYADSVKGRFTVSRDNAKNSLYLQMNSLRAEDTALYYCAKALWFGEFPHYYGMDVWGQGTTVTVSS
VL: AIQLTQSPSSLSASVGDRVTITCRASQGISSTLAWYQQKPGKAPKLLIYDASSLESGVPSRFSGSGSGTDFTLTISSLQPEDFATYYCQQFNSYPYTFGQGTKLEIKR
B3: anti-human c-Mpl agonist antibody 6-4-50 (IgG1) (antibody, V domains shown)
VH: EVQLVESGGGLVQPGRSLRLSCATSGFTFDNYAMYWVRQAPGKGLEWVSGISWNSGDIGYADSVKGRFTISRDNAKNSLYLQMNSLRAEDTALYYCARDAGFGEFHYGLDVWGQGTTVTVSS
VL: B2 VL with T32A, A43V, Y96W, L104V
B4: anti-human c-Mpl agonist antibody 7-10 (IgG1) (antibody, V domains shown)
VH: EVQLVESGGGLVQPGRSLRLSCAASGFTFDDYAMHWVRQAPGKGLEWVSGISWNSGSIGYADSVKGRFTISRDNAKNSLYLQMNSLRAEDTALYYCAKNLWFGEFRYWYFDLWGRGTLVTVSS
VL: AIQLTQSPSSLSASVGDRVTITCRASQGISSALAWYQQKPGKAPKLLIYDASSLESGVPSRFSGSGSGTDFTLTISSLQPEDFATYYCQQFNSYPLTFGGGTKVEIK
B5: 7-10G4344uhm light chain mutant 7-10VL_A43V (antibody, V domains shown)
VH: B4 VH
VL: B4 VL with A43V
notes: Mutant light chain combined with the heavy chain of 7-10G4344uhm; human kappa constant region; also called 6-4-50VL substitution product 2
B6: 7-10G4344uhm light chain mutant 7-10VL_Y94F (antibody, V domains shown)
VH: B4 VH
VL: B4 VL with Y94F
notes: Human kappa constant region; also called CDR substitution product

What was measured:
[1] = molecular target: T1, human thrombopoietin receptor (human …); assay: cell-based or functional assay
[2] = molecular target: T1, human thrombopoietin receptor (human …); assay: flow cytometry on FM3A-hMpl cells
Protocol: The binding activity of the anti-human c-Mpl antibodies was assayed by flow cytometry using the hybridoma culture supernatants or purified antibodies in the following manner. The FM3A-hMpl cells or human Mpl expressing FDCP2 cells (FDCP-hMpl) (FEBS, Lett., Oct. 21, 1996, 395 (2-3): 228-34) were used.
Cells (4×10⁵ cells) were suspended in 50 μl of FACS staining medium (2% FBS, 0.1% NaN₃, 1 mM EDTA in PBS) per reaction, 50 μl of the hybridoma culture supernatant or purified human antibody solution (final concentration: 0.1-1 μg/ml) was added, and the reaction was carried out on ice for 30 minutes. After the washing with FACS staining medium, a secondary antibody, the R-phycoerythrin (RPE) labeled goat anti-human Igγ F(ab′) antibody (Cat#2043-09, Southern Biotechnology), was added, and the reaction was carried out again on ice under the light-shielded conditions for 30 minutes, followed by washing again. The cells were suspended in a propidium iodide (PI)-containing FACS staining medium in order to analying binding activities of the antibodies. The analysis was made using the FACS Calibur (Becton Dickinson).
The concentrations of antibodies were prepared at 1, 0.1, and 0.01 μg/ml, and flow cytometry was carried out using FM3A-hMpl cells. The experiment was carried out in accordance with the method described in Example 4. […]

[3] = molecular target: T1, human thrombopoietin receptor (human …); assay: cell-based or functional assay; remark: listed apart in the source

Binder	UT7/TPO (Max) [1]	also measured
B1	> 50%	
B2	> 80%	
B3	> 80%	
B4	> 90%	
B5		binding result [2]: binds
B6		binding activity relative to the original 7-10G4344uhm [2]: ~0.1 fold of the original level; agonistic activity relative to the original 7-10G4344uhm [3]: ~0.1 fold of the original level
